According to article PMC11068563, “The MCU and MCUb amino-terminal domains tightly interact: mechanisms for low conductance assembly of the mitochondrial calcium uniporter complex” (iScience, 2024):
Each block holds one binder with its values, some of them ahead of it.

B3: Red-(NHS)-labeled MCUb-NTD (MCUb residues 58-159) (domain or fragment, human, UniProt Q9NWR8 58-159, looked up)
chain: DEITVIYRHGLPLVTLTLPSRKERCQFVVKPMLSTVGSFLQDLQNEDKGIKTAAIFTADGNMISASTLMDILLMNDFKLVINKIAYDVQCPKREKPSNEHTA
modifications: Red-NHS dye covalently linked to primary amines
notes: MCU dominant negative beta subunit (MCUb), Homo sapiens, GenBank NP_060388.2, residues 58-159 (amino-terminal domain); Same chain as m1, with the label; source: E. coli BL21(DE3) codon plus, purified (Ni-NTA, thrombin, SEC), then labelled with the RED-NHS labeling kit (NanoTemper)
B4: MCUb-NTD-fluorescein (MCUb residues 58-159 labelled with fluorescein at Cys82 and Cys147) (domain or fragment, human, UniProt Q9NWR8 58-159, looked up)
chain: DEITVIYRHGLPLVTLTLPSRKERCQFVVKPMLSTVGSFLQDLQNEDKGIKTAAIFTADGNMISASTLMDILLMNDFKLVINKIAYDVQCPKREKPSNEHTA
modifications: fluorescein (fluorescein-methane thiosulfonate) on Cys82 and Cys147
notes: MCU dominant negative beta subunit (MCUb), Homo sapiens, GenBank NP_060388.2, residues 58-159 (amino-terminal domain); Same chain as m1, with the label; also called fluorescein-MCUb-NTD; MCUb_(58-159) labeled; source: E. coli BL21(DE3) codon plus, purified (Ni-NTA, thrombin, SEC), then labelled with fluorescein-MTS

Tests used:
Conditions in all cases: both partners purified
[1] = molecular target: T1, MCU-NTD-D147R, MCU 72-189 D147R (human, UniProt Q8NE86-1 72-189, D147R); test: MST; ~0.5 uM Red-(NHS)-MCUb-NTD titrated with unlabelled MCU-NTD variant; 20 mM Tris (pH 8.5), 150 mM NaCl, 1 mM DTT, 0.05% (v/v) NP-40; 22 C; one-site model
T1 construct: mitochondrial calcium uniporter (MCU), Homo sapiens, GenBank NP_612366.1, N-terminal domain, residues 72-189, with D147R
T1 sequence (looked up): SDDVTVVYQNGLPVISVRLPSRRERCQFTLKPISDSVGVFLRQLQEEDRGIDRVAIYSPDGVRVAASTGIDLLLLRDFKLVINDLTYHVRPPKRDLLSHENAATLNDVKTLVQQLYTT

[2] = molecular target: B4; test: other fluorescence titration; steady-state fluorescein fluorescence; 0.1 uM MCUb-NTD-fluorescein titrated with MCU-NTD or MCU-NTD-D147R; 20 mM Tris (pH 8.5), 150 mM NaCl, 1 mM DTT, 0.0001% (v/v) NP-40, 22.5°C; one-site model
[3] = molecular target: B3; test: MST; Red-NHS-labelled MCUb-NTD, increasing MCU-NTD or MCU-NTD-D147R; 20 mM Tris (pH 8.5), 150 mM NaCl, 1 mM DTT, 0.05% (v/v) NP-40, 22°C; one-site model
[4] = molecular target: T2, MCU amino-terminal domain (MCU-NTD), MCU residues 72-189 (human, UniProt Q8NE86-1 72-189); test: as above
T2 construct: mitochondrial calcium uniporter (MCU), Homo sapiens, GenBank NP_612366.1, residues 72-189 (amino-terminal domain); theoretical monomer mass 13.8637 kDa is printed; also called MCU_(72-189); 15N-MCU-NTD; source: 15N-labelled in M9 minimal medium for NMR
T2 sequence (looked up): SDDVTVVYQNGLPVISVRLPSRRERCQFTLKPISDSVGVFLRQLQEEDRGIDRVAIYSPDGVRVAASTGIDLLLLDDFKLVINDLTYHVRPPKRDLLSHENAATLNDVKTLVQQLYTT

[5] = molecular target: T2, MCU amino-terminal domain (MCU-NTD), …; test: other fluorescence titration; steady-state fluorescein fluorescence; 0.1 uM MCUb-NTD-fluorescein titrated with MCU-NTD or MCU-NTD-D147R; 20 mM Tris (pH 8.5), 150 mM NaCl, 1 mM DTT, 0.0001% (v/v) NP-40, 22.5°C; one-site model

Binder: B3
- Kd [4]: 4.65 µM

Binder: B4
- Kd [5]: 0.133 µM

Continued, values first:

- Kd [1]: 11.3 µM
B1: Red-(NHS)-MCUb-NTD (MCUb 58-159 labelled with Red-NHS on primary amines) (domain or fragment, human, UniProt Q9NWR8 58-159, looked up)
chain: DEITVIYRHGLPLVTLTLPSRKERCQFVVKPMLSTVGSFLQDLQNEDKGIKTAAIFTADGNMISASTLMDILLMNDFKLVINKIAYDVQCPKREKPSNEHTA
modifications: Red-NHS dye covalently linked to primary amines
notes: MCU dominant negative beta subunit (MCUb), Homo sapiens, GenBank NP_060388.2, N-terminal domain, residues 58-159; also called Red-(NHS)-labeled MCUb-NTD; source: E. coli BL21(DE3) codon plus, purified (Ni-NTA, thrombin, SEC); labelled with the RED-NHS labeling kit (NanoTemper); not shown: 6xHis, N-terminal, cleaved

- fold change of KD against MCU-NTD [2]: ~2 fold
- fold change of KD against MCU-NTD [3]: ~2 fold
B2: MCU-NTD-D147R (MCU residues 72-189 with D147R) (domain or fragment, human, UniProt Q8NE86-1 72-189, looked up)
chain: SDDVTVVYQNGLPVISVRLPSRRERCQFTLKPISDSVGVFLRQLQEEDRGIDRVAIYSPDGVRVAASTGIDLLLLRDFKLVINDLTYHVRPPKRDLLSHENAATLNDVKTLVQQLYTT
notes: mitochondrial calcium uniporter (MCU), Homo sapiens, GenBank NP_612366.1, residues 72-189 (amino-terminal domain) with D147R in the MCU regulating acidic patch; also called D147R MCU_(72-189)
